Test results taken from article PMC5612113.

B1: Notch4 TM helix-containing fragment, Notch4(1432–1481) [human] / itself (parent)
chain: VHPHAGTAPPANQLPWPVLCSPVAGVILLALGALLVLQLIRRRRREHGAL
B2: Notch1 TM helix-containing fragment, Notch1(1721–1767) [human] / itself (parent)
chain: VQSETVEPPPPAQLHFMYVAAAAFVLLFFVGCGVLLSRKRRRQHGQL
B3: Notch2 TM helix-containing fragment, Notch2(1666–1710) [human] / itself (parent)
chain: VVSESLTPERTQLLYLLAVAVVIILFIILLGVIMAKRKRKHGSLW
B4: Notch3 TM helix-containing fragment, Notch3(1629–1675) [human] / itself (parent)
chain: VRGEPLEPPEPSVPLLPLLVAGAVLLLVILVLGVMVARRKREHSTLW

Variants of: B1
Experiment: Tango assay
Details: with itself;; read off a plot

| response (relative activity (C99-WT = 100)) | Variant |
| --- | --- |
| 93 | chain 1 L31P G32P |
| 130 | chain 1 V23P A24P |
| 140 | chain 1 A33P L34P |

Variants of: B2
Experiment: Tango assay
Details: with itself;; read off a plot

| response (relative activity (C99-WT = 100)) | Variant |
| --- | --- |
| 93 | chain 1 F28P F29P |
| 91 | chain 1 V30P G31P |
| 130 | chain 1 A20P A21P |

Variants of: B3
Experiment: Tango assay
Details: with itself;; read off a plot

| response (relative activity (C99-WT = 100)) | Variant |
| --- | --- |
| 82 | chain 1 A18P V19P |
| 53 | chain 1 I28P L29P |
| 46 | chain 1 F26P I27P |

Variants of: B4
Experiment: Tango assay
Details: with itself;; read off a plot

| response (relative activity (C99-WT = 100)) | Variant |
| --- | --- |
| 84 | chain 1 V20P A21P |
| 91 | chain 1 L30P V31P |
| 62 | chain 1 V28P I29P |
